# Results: PMC5791537 (Biomolecular NMR assignments, 2017)
# Biological target: C-domain fragment of human calmodulin (residues 76-148), calcium-free (apo) (human, UniProt P0DP23 77-149)
# Assay: NMR backbone assignment and chemical shift perturbation
binder,measurement,value
GPGSKRKQEEVSAIIIQRAYRRYLLKQKVKK,binding result,binds
